Tested on: Bacillus subtilis
Experiment: cleaved RNA product abundance (RNA/gDNA barcode ratio) relative to median wild-type variant (ratio to wild type); higher = more accumulation of the downstream cleavage product
Settings: cleavage site: cggR-gapA (positions -7 to +36 mutated)
Procedure, shortened: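 The B. subtilis chromosome carried reporter mRNAs, truncated aprE or tetM, containing barcoded RNase Y cleavage-site windows mutagenized using oligos with a 9% error rate. After growth in LB at 37°C from OD600 0.0003 to 0.3, cleaved RNA was gel-selected, reverse transcribed and barcode-sequenced next to genomic DNA barcodes, with UMI collapsing. Each construct's RNA:gDNA barcode ratio was scaled to the median construct with the unmutated site. That scaled ratio is reported as cleaved product abundance.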

[1] = experiment (reporter, strain, medium): exp 2b: truncated aprE reporter, strain BJT200
[2] = experiment (reporter, strain, medium): exp 4a: truncated aprE reporter, strain BJT201 with 2% xylose (RNase J1 expressed)

ACAGACGAAGGAGCCGCAAAGAAGTTTTTAAGGGATGACTAATCCCTCAATATAAATATCTCTCACTTATTTAAA
cleaved RNA product abundance [1]: 0.201
cleaved RNA product abundance [2]: 0.212

ACAGACGAAGGAGCCGCAAAGAAGTTTTTAAGGGATGAGTAATCCCTCAATATAAATATCTCTCACTTATTTAAA
cleaved RNA product abundance [2]: 0.235

ACAGACGAAGGAGCCGCAAAGAAGTTTTTAAGGGATGTATAATCCCTCAATATAAATATCTCTCACTTATTTAAA
cleaved RNA product abundance [1]: 0.285
cleaved RNA product abundance [2]: 0.331

ACAGACGAAGGAGCCGCAAAGAAGTTTTTAAGGGATTAATAATCCCTCAATATAAATATCTCTCACTTATTTAAA
cleaved RNA product abundance [1]: 0.364
cleaved RNA product abundance [2]: 0.364

ACAGACGAAGGAGCCGCAAAGAAGTTTTTAAGGGTTGAATAATCCCTCAATATAAATATCTCTCACTTATTTAAA
cleaved RNA product abundance [1]: 0.166
cleaved RNA product abundance [2]: 0.271

ACAGACGAAGGAGCCGCAAAGAAGTTTTTAAGGTATGAATAATCCCTCAATATAAATATCTCTCACTTATTTAAA
cleaved RNA product abundance [2]: 0.098

ACAGACGAAGGAGCCGCAAAGAAGTTTTTAAGTGATGAATAATCCCTCAATATAAATATCTCTCACTTATTTAAA
cleaved RNA product abundance [1]: 0.117
cleaved RNA product abundance [2]: 0.0945

ACAGACGAAGGAGCCGCAAAGAAGTTTTTAATGGATGAATAATCCCTCAATATAAATATCTCTCACTTATTTAAA
cleaved RNA product abundance [2]: 0.175

ACAGACGAAGGAGCCGCAAAGAAGTTTTTAGGGGATGAATAATCCCTCAATATAAATATCTCTCACTTATTTAAA
cleaved RNA product abundance [2]: 0.507

ACAGACGAAGGAGCCGCAAAGAAGTTTTTATGGGATGAATAATCCCTCAATATAAATATCTCTCACTTATTTAAA
cleaved RNA product abundance [2]: 0.323

ACAGACGAAGGAGCCGCAAAGAATATATTAAGGGATGAATAATCCCTCAATATAAATATCTCTCACTTATTTAAA
cleaved RNA product abundance [2]: 0.375

ACAGACGAAGGAGCCGCAAAGAATCTATTAAGGGATGAATAATCCCTCAATATAAATATCTCTCACTTATTTAAA
cleaved RNA product abundance [2]: 0.689

ACAGACGAAGGAGCCGCAAAGAATGTATTAAGGGATGAATAATCCCTCAATATAAATATCTCTCACTTATTTAAA
cleaved RNA product abundance [2]: 0.695

ACAGACGAAGGAGCCGCAAAGAATTAATTAAGGGATGAATAATCCCTCAATATAAATATCTCTCACTTATTTAAA
cleaved RNA product abundance [1]: 0.257
cleaved RNA product abundance [2]: 0.36

ACAGACGAAGGAGCCGCAAAGAATTCATTAAGGGATGAATAATCCCTCAATATAAATATCTCTCACTTATTTAAA
cleaved RNA product abundance [1]: 0.196
cleaved RNA product abundance [2]: 0.23

ACAGACGAAGGAGCCGCAAAGAATTGATTAAGGGATGAATAATCCCTCAATATAAATATCTCTCACTTATTTAAA
cleaved RNA product abundance [2]: 0.439

ACAGACGAAGGAGCCGCAAAGAATTTAATAAGGGATGAATAATCCCTCAATATAAATATCTCTCACTTATTTAAA
cleaved RNA product abundance [1]: 0.25
cleaved RNA product abundance [2]: 0.309

ACAGACGAAGGAGCCGCAAAGAATTTACTAAGGGATGAATAATCCCTCAATATAAATATCTCTCACTTATTTAAA
cleaved RNA product abundance [1]: 0.251
cleaved RNA product abundance [2]: 0.31

ACAGACGAAGGAGCCGCAAAGAATTTAGTAAGGGATGAATAATCCCTCAATATAAATATCTCTCACTTATTTAAA
cleaved RNA product abundance [2]: 0.337

ACAGACGAAGGAGCCGCAAAGAATTTATAAAGGGATGAATAATCCCTCAATATAAATATCTCTCACTTATTTAAA
cleaved RNA product abundance [1]: 0.355
cleaved RNA product abundance [2]: 0.481
cleaved RNA product abundance (experiment (reporter, strain, medium): exp 6: tetM reporter, strain 168): 0.219

ACAGACGAAGGAGCCGCAAAGAATTTATCAAGGGATGAATAATCCCTCAATATAAATATCTCTCACTTATTTAAA
cleaved RNA product abundance [1]: 0.275
cleaved RNA product abundance [2]: 0.377

ACAGACGAAGGAGCCGCAAAGAATTTATGAAGGGATGAATAATCCCTCAATATAAATATCTCTCACTTATTTAAA
cleaved RNA product abundance [2]: 0.325

ACAGACGAAGGAGCCGCAAAGAATTTATTAAAGGATGAAAAATCCCTCAATATAAATATCTCTCACTTATTTAAA
cleaved RNA product abundance [2]: 0.197

ACAGACGAAGGAGCCGCAAAGAATTTATTAAAGGATGAATAATCCCTCAATATAAATATCTCTCACTTATTTAAA
cleaved RNA product abundance [1]: 0.171
cleaved RNA product abundance [2]: 0.213

ACAGACGAAGGAGCCGCAAAGAATTTATTAACGGATGAATAATCCCTCAATATAAATATCTCTCACTTATTTAAA
cleaved RNA product abundance [2]: 0.203

ACAGACGAAGGAGCCGCAAAGAATTTATTAAGAGATGAATAATCCCTCAATATAAATATCTCTCACTTATTTAAA
cleaved RNA product abundance [1]: 0.112
cleaved RNA product abundance [2]: 0.142

ACAGACGAAGGAGCCGCAAAGAATTTATTAAGCGATGAATAATCCCTCAATATAAATATCTCTCACTTATTTAAA
cleaved RNA product abundance [1]: 0.116
cleaved RNA product abundance [2]: 0.122

ACAGACGAAGGAGCCGCAAAGAATTTATTAAGGAATGAATAATCCCTCAATATAAATATCTCTCACTTATTTAAA
cleaved RNA product abundance [1]: 0.0897
cleaved RNA product abundance [2]: 0.125

ACAGACGAAGGAGCCGCAAAGAATTTATTAAGGCATGAATAATCCCTCAATATAAATATCTCTCACTTATTTAAA
cleaved RNA product abundance [1]: 0.1
cleaved RNA product abundance [2]: 0.111

ACAGACGAAGGAGCCGCAAAGAATTTATTAAGGCATGAATAATCCCTCTATATAAATATCTCTCACTTATTTAAA
cleaved RNA product abundance [2]: 0.107

ACAGACGAAGGAGCCGCAAAGAATTTATTAAGGGAAGAATAATCCCTCAATATAAATATCTCTCACTTATTTAAA
cleaved RNA product abundance [1]: 0.289
cleaved RNA product abundance [2]: 0.518

ACAGACGAAGGAGCCGCAAAGAATTTATTAAGGGACGAATAATCCCTCAATATAAATATCTCTCACTTATTTAAA
cleaved RNA product abundance [1]: 0.463
cleaved RNA product abundance [2]: 0.605

ACAGACGAAGGAGCCGCAAAGAATTTATTAAGGGAGGAATAATCCCTCAATATAAATATCTCTCACTTATTTAAA
cleaved RNA product abundance [2]: 0.459

ACAGACGAAGGAGCCGCAAAGAATTTATTAAGGGATAAATAATCCCTCAATATAAATATCTCTCACTTATTTAAA
cleaved RNA product abundance [1]: 0.767
cleaved RNA product abundance [2]: 0.595

ACAGACGAAGGAGCCGCAAAGAATTTATTAAGGGATCAATAATCCCTCAATATAAATATCTCTCACTTATTTAAA
cleaved RNA product abundance [2]: 0.73

ACAGACGAAGGAGCCGCAAAGAATTTATTAAGGGATGAAAAATCCCTCAATATAAATATCTCTCACTTATTTAAA
cleaved RNA product abundance [1]: 0.561
cleaved RNA product abundance [2]: 0.35

ACAGACGAAGGAGCCGCAAAGAATTTATTAAGGGATGAACAATCCCTCAATATAAAAATCTCTCACTTATTTAAA
cleaved RNA product abundance [2]: 0.8

ACAGACGAAGGAGCCGCAAAGAATTTATTAAGGGATGAACAATCCCTCAATATAAATATCTCTCACTTATTTAAA
cleaved RNA product abundance [2]: 0.451

ACAGACGAAGGAGCCGCAAAGAATTTATTAAGGGATGAATAAACCCTCAATATAAATATCTCTCACTTATTTAAA
cleaved RNA product abundance [1]: 0.322
cleaved RNA product abundance [2]: 0.292

ACAGACGAAGGAGCCGCAAAGAATTTATTAAGGGATGAATAACCCCTCAATATAAATATCTCTCACTTATTTAAA
cleaved RNA product abundance [2]: 0.452

ACAGACGAAGGAGCCGCAAAGAATTTATTAAGGGATGAATAAGCCCTCAATATAAATATCTCTCACTTATTTAAA
cleaved RNA product abundance [1]: 0.502
cleaved RNA product abundance [2]: 0.573

ACAGACGAAGGAGCCGCAAAGAATTTATTAAGGGATGAATAATACCTCAATATAAATATCTCTCACTTATTTAAA
cleaved RNA product abundance [1]: 0.105
cleaved RNA product abundance [2]: 0.177

ACAGACGAAGGAGCCGCAAAGAATTTATTAAGGGATGAATAATCACTCAATATAAATATCTCTCACTTATTTAAA
cleaved RNA product abundance [1]: 0.134
cleaved RNA product abundance [2]: 0.119

ACAGACGAAGGAGCCGCAAAGAATTTATTAAGGGATGAATAATCCATCAATATAAATATCTCTCACTTATTTAAA
cleaved RNA product abundance [1]: 0.204
cleaved RNA product abundance [2]: 0.269

Source: the supplement of paper PMC11780869
